As a reminder, the Kd is the free concentration of one partner at which half of the binding sites on the other are occupied at equilibrium, for simple one-to-one binding.

This passage reports Kd results from publication PMC8188299.

The target of this test is Recombinant hACE2 protein fused with mFc, residues 19-740 (human) (UniProt Q9BYF1). The test is described as follows: SPR. For orientation: In SPR one partner is held on a chip, and binding of the other changes the refractive index at the surface.
Chain of UniProt Q9BYF1 (Q9BYF1 19-740): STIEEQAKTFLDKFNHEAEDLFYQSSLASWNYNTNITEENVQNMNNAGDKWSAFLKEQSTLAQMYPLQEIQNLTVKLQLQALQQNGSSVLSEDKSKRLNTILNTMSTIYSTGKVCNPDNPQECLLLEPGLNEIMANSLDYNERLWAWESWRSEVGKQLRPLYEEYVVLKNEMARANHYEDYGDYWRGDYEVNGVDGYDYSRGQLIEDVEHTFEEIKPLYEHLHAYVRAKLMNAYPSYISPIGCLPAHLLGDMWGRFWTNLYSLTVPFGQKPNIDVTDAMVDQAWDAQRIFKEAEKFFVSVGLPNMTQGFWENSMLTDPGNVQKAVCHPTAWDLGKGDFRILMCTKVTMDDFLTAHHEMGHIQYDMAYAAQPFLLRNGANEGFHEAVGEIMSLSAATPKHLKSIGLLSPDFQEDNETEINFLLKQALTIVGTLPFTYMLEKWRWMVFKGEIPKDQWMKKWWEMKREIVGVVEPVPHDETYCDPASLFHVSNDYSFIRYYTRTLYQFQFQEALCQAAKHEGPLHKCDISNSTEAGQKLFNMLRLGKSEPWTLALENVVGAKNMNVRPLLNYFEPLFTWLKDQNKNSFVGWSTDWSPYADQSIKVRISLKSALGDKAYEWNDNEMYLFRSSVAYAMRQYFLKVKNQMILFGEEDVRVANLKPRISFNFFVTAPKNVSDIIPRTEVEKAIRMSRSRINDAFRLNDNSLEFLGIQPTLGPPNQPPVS

As to “Recombinant RsYN04 RBD protein, residues 309-527 (domain or fragment)”, the equilibrium dissociation constant (Kd) is 15.9 µM.
